Measurements reported in patent publication US20140223606, “COMPOSITIONS AND METHODS COMPRISING SEQUENCES HAVING MEGANUCLEASE ACTIVITY” (PIONEER HI BRED INTERNATIONAL INC, published 2014).

Key:
Settings in all cases: tags: NLS, 6xHis
MHP14(03) = molecular target: T1, MHP14(03) (artificial); test: cell_activity; yeast 37 C; 28 C: 0.5
T1 chain: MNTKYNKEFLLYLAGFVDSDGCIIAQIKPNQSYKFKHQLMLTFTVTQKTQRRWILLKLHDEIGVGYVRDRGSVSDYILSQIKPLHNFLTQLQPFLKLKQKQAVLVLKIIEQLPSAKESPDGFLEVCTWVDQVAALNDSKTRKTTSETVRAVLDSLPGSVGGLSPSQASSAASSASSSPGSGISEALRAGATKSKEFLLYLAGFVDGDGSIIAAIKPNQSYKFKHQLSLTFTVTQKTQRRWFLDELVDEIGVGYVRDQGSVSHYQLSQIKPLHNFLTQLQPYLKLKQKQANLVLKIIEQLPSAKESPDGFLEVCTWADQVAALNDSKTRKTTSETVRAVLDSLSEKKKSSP
Procedure: A 3 mL culture of selective media (MP Biomedical) was inoculated with a single colony of the yeast screening strain and grown at 30° C. overnight. On the following day, a 50 ml YPD culture (MP Biomedical) was started with 2 ml of the overnight culture and grown at 30° C. overnight. On the following day, the cells were harvested by centrifugation at 4000 rpm. The cells were resuspended in 100 ml ice cold water and centrifuged again. The cells were then washed in 1.2 M sorbitol, followed by treatment with 2 ml of 10 mM Tris pH 8.0, 1 mM EDTA, 100 mM Lithium acetate, 10 mM DTT, 0.6M sorbitol for 30 minutes at 30° C. with shaking. The cells were recovered by centrifugation, washed in 40 ml 1.2M sorbitol and finally resuspended in 250 microliters of 1.2M sorbitol. 50 microliter aliquots were transferred to test tubes on ice. Up to 5 microliters of DNA (100-500 nanograms) were added. The suspension was transferred to a 0.2 cm electroporation cuvette, on ice. Electroporation was performed with a pulse charge at 1.5 kV, 200 ohms, 25 microF (pulse time of 5 milliseconds). 1 mL YPD media (MP Biomedical) was added and the cells were allowed to recover at 30° C. for 1-2 hr. The cells were centrifuged, resuspended in 100 uL 1M sorbitol and plated on selective media lacking leucine and containing 2% galactose. The resulting yeast colonies were incubated at various temperatures ranging from 22 to 37 degrees Celsius for 7-10 days. I-CreI and meganucleases derived from it have maximal activity at or above 37 degrees Celsius. Screening was performed at a range of temperatures from 22 to 37 degrees in order to observe increases in activity at lower temperatures which are relevant to certain biological systems (eg. plant cells, plant cell cultures, etc). At that time the red/white sectoring phenotype, indicative of meganuclease activity was observed. Colonies with increased white sectoring over the parental meganuclease (indicating colonies expressing a meganuclease with increased meganuclease activity), also referred to as “hits” and sometimes completely white, were isolated for further analysis. […]

MHP14(01) = molecular target: T2, MHP14(01) (artificial); test: cell_activity; yeast 37 C; 28 C: 0
T2 chain: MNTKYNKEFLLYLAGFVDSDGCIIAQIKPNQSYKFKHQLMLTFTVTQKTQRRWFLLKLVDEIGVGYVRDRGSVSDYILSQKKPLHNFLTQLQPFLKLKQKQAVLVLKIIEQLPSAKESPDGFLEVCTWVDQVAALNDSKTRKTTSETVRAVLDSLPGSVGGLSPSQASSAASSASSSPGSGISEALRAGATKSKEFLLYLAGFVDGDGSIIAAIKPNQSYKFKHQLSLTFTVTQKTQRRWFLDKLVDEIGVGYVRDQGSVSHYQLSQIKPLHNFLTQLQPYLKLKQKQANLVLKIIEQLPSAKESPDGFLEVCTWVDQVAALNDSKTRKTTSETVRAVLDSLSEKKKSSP
Procedure: (§1) A 3 mL culture of selective media (MP Biomedical) was inoculated with a single colony of the yeast screening strain and grown at 30° C. overnight. On the following day, a 50 ml YPD culture (MP Biomedical) was started with 2 ml of the overnight culture and grown at 30° C. overnight. On the following day, the cells were harvested by centrifugation at 4000 rpm. The cells were resuspended in 100 ml ice cold water and centrifuged again. The cells were then washed in 1.2 M sorbitol, followed by treatment with 2 ml of 10 mM Tris pH 8.0, 1 mM EDTA, 100 mM Lithium acetate, 10 mM DTT, 0.6M sorbitol for 30 minutes at 30° C. with shaking. The cells were recovered by centrifugation, washed in 40 ml 1.2M sorbitol and finally resuspended in 250 microliters of 1.2M sorbitol. 50 microliter aliquots were transferred to test tubes on ice. Up to 5 microliters of DNA (100-500 nanograms) were added. The suspension was transferred to a 0.2 cm electroporation cuvette, on ice. Electroporation was performed with a pulse charge at 1.5 kV, 200 ohms, 25 microF (pulse time of 5 milliseconds). 1 mL YPD media (MP Biomedical) was added and the cells were allowed to recover at 30° C. for 1-2 hr. The cells were centrifuged, resuspended in 100 uL 1M sorbitol and plated on selective media lacking leucine and containing 2% galactose. The resulting yeast colonies were incubated at various temperatures ranging from 22 to 37 degrees Celsius for 7-10 days. I-CreI and meganucleases derived from it have maximal activity at or above 37 degrees Celsius. Screening was performed at a range of temperatures from 22 to 37 degrees in order to observe increases in activity at lower temperatures which are relevant to certain biological systems (eg. plant cells, plant cell cultures, etc). At that time the red/white sectoring phenotype, indicative of meganuclease activity was observed. Colonies with increased white sectoring over the parental meganuclease (indicating colonies expressing a meganuclease with increased meganuclease activity), also referred to as “hits” and sometimes completely white, were isolated for further analysis.
(§2) A total of 15 MHP14 variants with increased activity were confirmed in the yeast system (as described in Example 6). Increased activity was observed across a range of temperatures: 28 degrees Celsius, 34 degrees Celsius and 37 degrees Celsius, as shown in Table 11.

MHP14(06) = molecular target: T3, MHP14(06) (artificial); test: cell_activity; yeast 37 C; 28 C: 0
T3 chain: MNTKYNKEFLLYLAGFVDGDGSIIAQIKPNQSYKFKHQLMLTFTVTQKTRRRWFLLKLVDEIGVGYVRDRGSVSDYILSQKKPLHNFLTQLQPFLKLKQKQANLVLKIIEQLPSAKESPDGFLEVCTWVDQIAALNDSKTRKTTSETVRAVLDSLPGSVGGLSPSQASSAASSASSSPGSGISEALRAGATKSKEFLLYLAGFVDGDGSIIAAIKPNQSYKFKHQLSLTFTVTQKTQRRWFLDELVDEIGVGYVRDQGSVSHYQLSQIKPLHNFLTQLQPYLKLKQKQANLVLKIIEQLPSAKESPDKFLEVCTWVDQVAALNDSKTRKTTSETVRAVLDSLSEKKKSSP
Procedure: as §1, §2

MHP14(L14-03) = molecular target: T4, MHP14(L14-03) (artificial); test: cell_activity; yeast 37 C; 28 C: 0
T4 chain: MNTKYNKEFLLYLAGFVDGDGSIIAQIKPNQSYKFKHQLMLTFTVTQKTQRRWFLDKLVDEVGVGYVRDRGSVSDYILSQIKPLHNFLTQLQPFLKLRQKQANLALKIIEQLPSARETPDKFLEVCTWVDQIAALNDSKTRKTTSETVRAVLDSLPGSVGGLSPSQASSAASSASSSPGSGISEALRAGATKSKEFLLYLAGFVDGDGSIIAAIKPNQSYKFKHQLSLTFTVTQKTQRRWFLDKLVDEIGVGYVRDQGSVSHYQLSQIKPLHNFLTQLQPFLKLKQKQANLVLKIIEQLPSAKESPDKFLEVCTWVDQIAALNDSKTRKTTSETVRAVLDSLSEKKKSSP
Procedure: as §1, §2

MHP14(L14-04) = molecular target: T5, MHP14(L14-04) (artificial); test: cell_activity; yeast 37 C; 28 C: 0
T5 chain: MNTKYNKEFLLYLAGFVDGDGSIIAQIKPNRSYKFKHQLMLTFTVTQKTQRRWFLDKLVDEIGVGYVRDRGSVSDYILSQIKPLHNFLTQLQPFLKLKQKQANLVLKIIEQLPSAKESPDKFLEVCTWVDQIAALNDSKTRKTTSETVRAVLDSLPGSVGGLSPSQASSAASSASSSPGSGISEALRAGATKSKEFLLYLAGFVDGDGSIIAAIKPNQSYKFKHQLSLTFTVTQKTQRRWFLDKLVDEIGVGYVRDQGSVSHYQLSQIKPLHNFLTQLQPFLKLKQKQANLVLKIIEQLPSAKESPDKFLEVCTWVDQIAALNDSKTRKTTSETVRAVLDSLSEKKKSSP
Procedure: as §1, §2

B1: MHP14 recognition site (dsDNA)
DNA 1: CAAACAGATTCACGTCAGATTT
DNA 2: AAATCTGACGTGAATCTGTTTG
- activity (MHP14(03)): 3 score 0-4
- activity (MHP14(01)): 3 score 0-4
- activity (MHP14(06)): 3.5 score 0-4
- activity (MHP14(L14-03)): 3 score 0-4
- activity (MHP14(L14-04)): 3 score 0-4
